Our source for the Kd values is patent US20170349669A1 (Hoffmann-La Roche, published 2017).

Assay [1] addresses T1, human VEGFA-121-His (human, UniProt P15692-9 27-147).
T1 construct: Captured on an anti-His antibody surface; P15692 is the canonical VEGF-A entry, and the 121 isoform is one of its splice forms; also called VEFGA-121-His; not shown: His tag
T1 sequence (looked up): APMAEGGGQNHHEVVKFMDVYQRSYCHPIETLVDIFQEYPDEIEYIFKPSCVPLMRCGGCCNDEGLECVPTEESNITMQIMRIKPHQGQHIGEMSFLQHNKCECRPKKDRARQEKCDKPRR
In words: SPR Biacore T200, VEGFA-121-His captured via anti-His, antibody as analyte, 1:1 Langmuir. The protocol: (§1) Binding of indicated antibodies to human VEGFA-121 was investigated by surface plasmon resonance using a BIACORE® T200 instrument (GE Healthcare). Around 10000 (RU) of anti His antibody (1 μg/ml anti His antibody; Order Code: 28995056; GE Healthcare Bio-Sciences AB, Sweden) were coupled on a Series S CM5 chip (GE Healthcare BR-1005-30) at pH 5.0 by using an amine coupling kit supplied by the GE Healthcare. HBS-N (10 mM HEPES, 150 mM NaCl pH 7.4, GE Healthcare) was used as running buffer during the immobilization procedure. For the following kinetic characterization, sample and running buffer was PBS-T (10 mM phosphate buffered saline including 0.05% Tween20) at pH 7.4. The flow cell was set to 25° C.—and the sample block set to 12° C.—and primed with running buffer twice prior to kinetic characterization.
(§2) VEFGA-121-His was captured by injecting a 0.5 μg/ml solution for 30 sec at a flow of 5 μl/min. The association was measured by injection of the indicated antibodies in various concentrations in solution for 180 sec at a flow of 30 μl/min starting with 1000 nM in 1:3 serial dilutions. The dissociation phase was monitored for up to 600 sec and triggered by switching from the sample solution to running buffer. The surface was regenerated by 60 sec washing with a Glycine pH 1.5 solution at a flow rate of 30 μl/min. Bulk refractive index differences were corrected by subtracting the response obtained from a anti His antibody surface. Blank injections are also subtracted (=double referencing). For calculation of KD and other kinetic parameters the Langmuir 1:1 model was used.

For assay [2], the target named is T1, human VEGFA-121-His. The description is as above. The protocol:
as §1, §2
The source holds these as a separate data set.

The target of assay [3] is T2, human Ang-2-RBD-Fc (human, UniProt O15123 275-496, limits assumed).
T2 construct: domain: RBD; Used as analyte in solution; The KD is called apparent; not shown: Fc part
T2 sequence (looked up): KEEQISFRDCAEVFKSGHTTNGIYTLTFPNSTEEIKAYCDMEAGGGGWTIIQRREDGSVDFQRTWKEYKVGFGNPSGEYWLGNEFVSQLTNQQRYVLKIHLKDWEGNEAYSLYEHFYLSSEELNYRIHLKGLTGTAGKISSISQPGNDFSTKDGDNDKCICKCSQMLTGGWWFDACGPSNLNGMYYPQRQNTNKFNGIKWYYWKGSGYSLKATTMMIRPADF
In words: SPR Biacore T200, apparent KD, antibody captured via anti-human F(ab')2, Ang2-RBD-Fc as analyte. As for the experimental part:
(§3) Binding of indicated antibodies to human Ang-2-RBD-Fc was investigated by surface plasmon resonance using a BIACORE® T200 instrument (GE Healthcare). Around 8000 (RU) of goat anti human F(ab′)₂ (10 μg/ml anti human F(ab)′₂; Order Code: 28958325; GE Healthcare Bio-Sciences AB, Sweden) were coupled on a Series S CM5 chip (GE Healthcare BR-1005-30) at pH 5.0 by using an amine coupling kit supplied by the GE Healthcare. HBS-N (10 mM HEPES, 150 mM NaCl pH 7.4, GE Healthcare) was used as running buffer during the immobilization procedure. For the following kinetic characterization, sample and running buffer was PBS-T (10 mM phosphate buffered saline including 0.05% Tween20) at pH 7.4. The flow cell was set to 25° C.—and the sample block set to 12° C.—and primed with running buffer twice prior to kinetic characterization.
(§4) The bispecific antibody was captured by injecting a 5 nM solution for 25 sec at a flow of 5 μl/min. The association was measured by injection of human Ang2-RBD-Fc in various concentrations in solution for 120 sec at a flow of 30 μl/min starting with 100 nM in 1:3 serial dilutions. The dissociation phase was monitored for up to 180 sec and triggered by switching from the sample solution to running buffer. The surface was regenerated by 60 sec washing with a Glycine pH 2.1 solution at a flow rate of 30 μl/min. Bulk refractive index differences were corrected by subtracting the response obtained from a goat anti human F(ab′)₂ surface. Blank injections are also subtracted (=double referencing). For calculation of apparent KD the Langmuir 1:1 model was used.

For assay [4], the target named is T2, human Ang-2-RBD-Fc. The assay is described as above. As for the experimental part:
as §3, §4
This is another data set of the same source.

Read-outs that look alike come from different tables or passages of the source.

B1: Ang2VEGF_280 (bispecific antibody, human IgG1, kappa)
heavy 1: not shown
light 1: EVQLVESGGGLVQPGGSLRLSCAASGYTFTNYGMNWVRQAPGKGLEWVGWINTYTGEPTYAADFKRRFTFSLDTSKSTAYLQMNSLRAEDTAVYYCAKYPHYYGSSHWYFDVWGQGTLVTVSSASTKGPSVFPLAPSSKSTSGGTAALGCLVKDYFPEPVTVSWNSGALTSGVHTFPAVLQSSGLYSLSSVVTVPSSSLGTQTYICNVNHKPSNTKVDKKVEPKSC
heavy 2: not shown
light 2: QPGLTQPPSVSVAPGQTARITCGGNNIGSKSVHWYQQKPGQAPVLVVYDDSDRPSGIPERFSGSNSGNTATLTISRVEAGDEADYYCQVWDSSSDHYVFGTGTKVTVLRTVAAPSVFIFPPSDKKLKSGTASVVCLLNNFYPREAKVQWKVDNALQSGNSQESVTEQDSKDSTYSLSSTLTLSKADYEKHKVYACEVTHQGLSSPVTKSFNRGEC
notes: Bivalent CrossMAb-Fab with four different chains; also called Ang2VEGF-0280
Turning to B1, the Kd is 7 nM with human VEGFA-121-His [1], 7 nM in the assay with human VEGFA-121-His [2], 3 nM with human Ang-2-RBD-Fc [3] and 3 nM in the assay with human Ang-2-RBD-Fc [4].

B2: Ang2VEGF_290 (bispecific antibody, human IgG1, kappa, lambda)
heavy 1: not shown
light 1: EVQLVESGGGLVQPGGSLRLSCAASGYTFTNYGMNWVRQAPGKGLEWVGWINTYTGEPTYAADFKRRFTFSLDTSKSTAYLQMNSLRAEDTAVYYCAKYPHYYGSSHWYFDVWGQGTLVTVSSASTKGPSVFPLAPSSKSTSGGTAALGCLVKDYFPEPVTVSWNSGALTSGVHTFPAVLQSSGLYSLSSVVTVPSSSLGTQTYICNVNHKPSNTKVDKKVEPKSC
heavy 2: not shown
light 2: QPGLTQPPSVSVAPGQTARITCGGNNIGSKSVHWYQQKPGQAPVLVVYDDSDRPSGIPERFSGSNSGNTATLTISRVEAGDEADYYCQVWDSSSDHYVFGTGTKVTVLGQPKAAPSVTLFPPSSEELQANKATLVCLISDFYPGAVTVAWKADSSPVKAGVETTTPSKQSNNKYAASSYLSLTPEQWKSHRSYSCQVTHEGSTVEKTVAPTECS
notes: The Ang2 arm has a lambda light chain; also called Ang2VEGF-0290 (wt); Ang2VEGF-0290
As to B2, the Kd in the assay with human VEGFA-121-His [1] came to 8 nM; in the assay with human Ang-2-RBD-Fc [3] it was 3 nM.

B3: Ang2VEGF_468 (bispecific antibody, human IgG1, kappa)
heavy 1: not shown
light 1: EVQLVESGGGLVQPGGSLRLSCAASGYTFTNYGMNWVRQAPGKGLEWVGWINTYTGEPTYAADFKRRFTFSLDTSKSTAYLQMNSLRAEDTAVYYCAKYPHYYGSSHWYFDVWGQGTLVTVSSASTKGPSVFPLAPSSKSTSGGTAALGCLVKDYFPEPVTVSWNSGALTSGVHTFPAVLQSSGLYSLSSVVTVPSSSLGTQTYICNVNHKPSNTKVDKKVEPKSC
heavy 2: not shown
light 2: QPGLTQPPSVSVAPGQTARITCGGNNIGSKSVHWYQQKPGQAPVLVVYDDSDRPSGIPERFSGSNSGNTATLTISRVEAGDEADYYCQVWDSSSDHYVFGTGTKVTVLRTVAAPSVFIFPPSDKKLKSGTASVVCLLNNFYPREAKVQWKVDNALQSGNSQESVTEQDSKDSTYSLSSTLTLSKADYEKHKVYACEVTHQGLSSPVTKSFNRGEC
notes: Wild type CH3 domains, no knob-into-hole
As for B3, the figures for the Kd with human VEGFA-121-His [2] and with human Ang-2-RBD-Fc [4] were 22 nM and 0.5 nM, respectively.

B4: Ang2VEGF_279 (bispecific antibody, human IgG1, kappa, lambda)
heavy 1: not shown
light 1: EVQLVESGGGLVQPGGSLRLSCAASGYTFTNYGMNWVRQAPGKGLEWVGWINTYTGEPTYAADFKRRFTFSLDTSKSTAYLQMNSLRAEDTAVYYCAKYPHYYGSSHWYFDVWGQGTLVTVSSASTKGPSVFPLAPSSKSTSGGTAALGCLVKDYFPEPVTVSWNSGALTSGVHTFPAVLQSSGLYSLSSVVTVPSSSLGTQTYICNVNHKPSNTKVDKKVEPKSC
heavy 2: not shown
light 2: QPGLTQPPSVSVAPGQTARITCGGNNIGSKSVHWYQQKPGQAPVLVVYDDSDRPSGIPERFSGSNSGNTATLTISRVEAGDEADYYCQVWDSSSDHYVFGTGTKVTVLGQPKAAPSVTLFPPSSKKLQANKATLVCLISDFYPGAVTVAWKADSSPVKAGVETTTPSKQSNNKYAASSYLSLTPEQWKSHRSYSCQVTHEGSTVEKTVAPTECS
notes: The Ang2 arm has a lambda light chain; also called Ang2VEGF-0279
Turning to B4, the results for the Kd in the assay with human VEGFA-121-His [1] and in the assay with human Ang-2-RBD-Fc [3] were 6 nM and 5 nM, respectively.

B5: Ang2VEGF_467 (bispecific antibody, human IgG1, kappa)
heavy 1: not shown
light 1: EVQLVESGGGLVQPGGSLRLSCAASGYTFTNYGMNWVRQAPGKGLEWVGWINTYTGEPTYAADFKRRFTFSLDTSKSTAYLQMNSLRAEDTAVYYCAKYPHYYGSSHWYFDVWGQGTLVTVSSASTKGPSVFPLAPSSKSTSGGTAALGCLVKDYFPEPVTVSWNSGALTSGVHTFPAVLQSSGLYSLSSVVTVPSSSLGTQTYICNVNHKPSNTKVDKKVEPKSC
heavy 2: not shown
light 2: QPGLTQPPSVSVAPGQTARITCGGNNIGSKSVHWYQQKPGQAPVLVVYDDSDRPSGIPERFSGSNSGNTATLTISRVEAGDEADYYCQVWDSSSDHYVFGTGTKVTVLRTVAAPSVFIFPPSDKKLKSGTASVVCLLNNFYPREAKVQWKVDNALQSGNSQESVTEQDSKDSTYSLSSTLTLSKADYEKHKVYACEVTHQGLSSPVTKSFNRGEC
notes: as for B3
In the case of B5, the Kd with human VEGFA-121-His [2] turned out to be 17 nM; in the assay with human Ang-2-RBD-Fc [4], 0.5 nM.
